Tests used:
Experiment in all cases: EMSA; EMSA: 20 mM HEPES pH 7.3, 100 mM KCl, 1 mM MgCl2, 1 mg/ml BSA, 1 mM DTT, 6% glycerol, 0.5 nM 32P substrate, 30 min on ice; 5% native PAGE, 1x TBE, 4°C
INTS3FL = INTS3FL (human, UniProt Q68E01-2 1-1042); conditions: protein: recombinant, tags: GST cleaved (PreScission)
C9ORF80 = molecular target: T1, C9ORF80 (human, UniProt Q9NRY2 1-104); conditions: protein: recombinant, tags: His (pET28a)
T1 sequence: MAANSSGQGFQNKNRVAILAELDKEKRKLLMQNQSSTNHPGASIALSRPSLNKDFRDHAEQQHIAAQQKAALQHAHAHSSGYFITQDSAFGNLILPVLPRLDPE

hNABP2 (hSSB1) = hNABP2 (hSSB1) (human, UniProt Q9BQ15 1-211); conditions: protein: recombinant; tags: His; label: 5'-32P
hNABP2 (hSSB1), sequence (Q9BQ15 whole entry): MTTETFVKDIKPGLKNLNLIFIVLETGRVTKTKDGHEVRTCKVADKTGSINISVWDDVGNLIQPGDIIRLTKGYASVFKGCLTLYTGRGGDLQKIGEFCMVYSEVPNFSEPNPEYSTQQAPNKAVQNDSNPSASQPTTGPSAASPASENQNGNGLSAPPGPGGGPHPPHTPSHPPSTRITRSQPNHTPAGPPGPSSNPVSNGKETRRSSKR

INTS3C = INTS3C (human, UniProt Q68E01-2 514-1042); conditions: protein: recombinant, tags: His (pET28a), label: 5'-32P
INTS3C, sequence (Q68E01 515-1043): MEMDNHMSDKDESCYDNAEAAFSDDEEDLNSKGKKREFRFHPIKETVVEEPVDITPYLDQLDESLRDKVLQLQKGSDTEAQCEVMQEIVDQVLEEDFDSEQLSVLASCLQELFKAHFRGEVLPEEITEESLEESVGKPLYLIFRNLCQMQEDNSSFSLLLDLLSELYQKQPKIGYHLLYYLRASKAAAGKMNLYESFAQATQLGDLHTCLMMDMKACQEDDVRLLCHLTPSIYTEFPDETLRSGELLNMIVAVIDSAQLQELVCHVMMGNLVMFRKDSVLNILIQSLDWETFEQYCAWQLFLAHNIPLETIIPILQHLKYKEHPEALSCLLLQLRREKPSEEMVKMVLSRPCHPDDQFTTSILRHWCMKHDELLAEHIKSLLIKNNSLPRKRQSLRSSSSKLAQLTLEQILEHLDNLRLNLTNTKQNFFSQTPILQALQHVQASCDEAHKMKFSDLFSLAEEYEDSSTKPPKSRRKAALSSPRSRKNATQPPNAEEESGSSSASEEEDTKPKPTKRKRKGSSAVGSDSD

[1] = molecular target: INTS3FL in co-expressed complex;hNABP2 (hSSB1);C9ORF80 (human;human;human, UniProt Q68E01-2;Q9BQ15;Q9NRY2 1-1042;1-211;1-104, ||); conditions: protein: recombinant;recombinant;recombinant; tags: GST (pGEX-6P-1); copies: 1;1;1; label: 5'-32P
INTS3FL in co-expressed complex;hNABP2 (hSSB1);C9ORF80, sequence (Q68E01 other isoform, or with tags, fused parts or gaps ||, chain 1 of 2): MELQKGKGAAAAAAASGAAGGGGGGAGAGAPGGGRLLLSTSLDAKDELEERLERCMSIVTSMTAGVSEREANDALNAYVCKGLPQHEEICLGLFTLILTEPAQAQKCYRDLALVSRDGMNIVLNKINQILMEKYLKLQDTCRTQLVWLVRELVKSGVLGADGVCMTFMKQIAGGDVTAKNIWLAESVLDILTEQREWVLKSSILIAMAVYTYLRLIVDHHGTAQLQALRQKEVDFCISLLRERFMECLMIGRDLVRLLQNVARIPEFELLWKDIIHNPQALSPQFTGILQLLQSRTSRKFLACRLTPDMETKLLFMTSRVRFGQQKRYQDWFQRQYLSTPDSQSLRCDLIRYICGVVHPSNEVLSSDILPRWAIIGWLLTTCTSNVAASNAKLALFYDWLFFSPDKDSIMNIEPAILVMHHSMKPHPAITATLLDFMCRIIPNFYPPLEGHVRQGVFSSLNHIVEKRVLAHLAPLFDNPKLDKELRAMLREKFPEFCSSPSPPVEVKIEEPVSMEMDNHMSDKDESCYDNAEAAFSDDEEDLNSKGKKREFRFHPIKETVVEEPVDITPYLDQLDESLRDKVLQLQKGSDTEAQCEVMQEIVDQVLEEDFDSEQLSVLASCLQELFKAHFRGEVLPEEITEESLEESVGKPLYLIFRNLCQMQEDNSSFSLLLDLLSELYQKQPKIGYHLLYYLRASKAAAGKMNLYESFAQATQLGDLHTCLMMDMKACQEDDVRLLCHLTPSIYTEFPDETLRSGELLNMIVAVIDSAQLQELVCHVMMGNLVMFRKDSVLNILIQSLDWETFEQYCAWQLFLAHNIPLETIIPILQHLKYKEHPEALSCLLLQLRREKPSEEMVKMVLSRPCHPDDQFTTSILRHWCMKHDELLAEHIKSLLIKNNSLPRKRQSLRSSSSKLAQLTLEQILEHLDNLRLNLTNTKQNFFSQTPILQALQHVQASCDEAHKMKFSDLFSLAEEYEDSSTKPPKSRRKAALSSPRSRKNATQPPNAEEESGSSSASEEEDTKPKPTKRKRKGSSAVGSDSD
INTS3FL in co-expressed complex;hNABP2 (hSSB1);C9ORF80, sequence (Q9BQ15 whole entry, chain 2 of 2): as the sequence (Q9BQ15 whole entry) above

hNABP1 (hSSB2) = hNABP1 (hSSB2) (human, UniProt Q96AH0 1-204); conditions: protein: recombinant; tags: His; label: 5'-32P
hNABP1 (hSSB2), sequence (Q96AH0 whole entry): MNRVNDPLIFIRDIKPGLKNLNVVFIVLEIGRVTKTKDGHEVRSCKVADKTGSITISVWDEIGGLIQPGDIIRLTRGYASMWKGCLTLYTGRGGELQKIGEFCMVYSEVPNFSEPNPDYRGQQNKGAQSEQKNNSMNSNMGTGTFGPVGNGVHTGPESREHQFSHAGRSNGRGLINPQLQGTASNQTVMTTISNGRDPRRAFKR

[2] = molecular target: INTS3FL in co-expressed complex;hNABP1 (hSSB2);C9ORF80 (human;human;human, UniProt Q68E01-2;Q96AH0;Q9NRY2 1-1042;1-204;1-104, ||); conditions: protein: recombinant;recombinant;recombinant; tags: GST (pGEX-6P-1); copies: 1;1;1; label: 5'-32P
INTS3FL in co-expressed complex;hNABP1 (hSSB2);C9ORF80, sequence (Q68E01 other isoform, or with tags, fused parts or gaps ||, chain 1 of 2): as the sequence (Q68E01 other isoform, or with tags, fused parts or gaps ||, chain 1 of 2) above
INTS3FL in co-expressed complex;hNABP1 (hSSB2);C9ORF80, sequence (Q96AH0 whole entry, chain 2 of 2): as the sequence (Q96AH0 whole entry) above

[3] = label: 5'-32P on one strand, blunt

INTS3FL, sequence (Q68E01 other isoform, or with tags, fused parts or gaps): as the sequence (Q68E01 other isoform, or with tags, fused parts or gaps ||, chain 1 of 2) above

## GAGCTACCAGCTACCCCGTATGTCAGAGAG (ssDNA) [DNA 30-mer (random)]
INTS3FL; label: 5'-32P
  Kd: 13 ± 0.8 µM

B1: dT90 (ssDNA)
DNA: TTTTTTTTTTTTTTTTTTTTTTTTTTTTTTTTTTTTTTTTTTTTTTTTTTTTTTTTTTTTTTTTTTTTTTTTTTTTTTTTTTTTTTTTTT
C9ORF80; label: 5'-32P
  binding result: binds
INTS3FL; label: 5'-32P
  binding result: binds

B2: DNA 60-mer (random) (ssDNA)
DNA: ACGCAGTTGAGTATTCTACAGAGTTGGCGTGAGCTACCAGCTACCCCGTATGTCAGAGAG
INTS3FL; label: 5'-32P
  Kd: 6.4 ± 0.9 µM

B3: dT60 (ssDNA)
DNA: TTTTTTTTTTTTTTTTTTTTTTTTTTTTTTTTTTTTTTTTTTTTTTTTTTTTTTTTTTTT
INTS3FL; label: 5'-32P
  binding result: binds

## UUUUUUUUUUUUUUUUUUUUUUUUUUUUUU (ssRNA) [rU30]
hNABP2 (hSSB1)
  Kd: 0.06 ± 0.02 µM
INTS3C; chain copies: 2
  Kd: 1.2 ± 0.8 µM
[1]
  Kd: 0.5 ± 0.07 µM
INTS3FL; label: 5'-32P
  Kd: 5.6 ± 1.2 µM

B4: dsRNA 30-mer (dsRNA)
RNA 1: GAGCUACCAGCUACCCCGUAUGUCAGAGAG
RNA 2: CUCUCUGACAUACGGGGUAGCUGGUAGCUC
C9ORF80; [3]
  binding result: no binding
INTS3FL; [3]
  binding result: no binding

## TTTTTTTTTTTTTTTTTTTTTTTTTTTTTT (ssDNA) [dT30]
INTS3C
  Kd: 7.2 ± 1.2 µM
hNABP1 (hSSB2)
  Kd: 0.15 ± 0.04 µM
C9ORF80; label: 5'-32P
  Kd: 13.2 ± 1.2 µM
[2]
  Kd: 0.6 ± 0.09 µM

B5: DNA:RNA hybrid 30-mer (DNA:RNA)
DNA: GAGCTACCAGCTACCCCGTATGTCAGAGAG
RNA: B4 RNA 2
C9ORF80; [3]
  binding result: no binding
INTS3FL; [3]
  binding result: no binding
